From publication PMC3490968
pKi: −log10 of the molar value.

Target: papain (UniProt P00784)
Test: enzyme inhibition kinetics (fluorogenic substrate, Lineweaver-Burk plot); papain 2 nM, cystatin 40, 60, 80 pM, substrate Z-Phe-Arg-7-amido-4-methylcoumarin 0.3-5 uM; 100 mM sodium phosphate pH 6.3, 10 mM EDTA, 400 mM NaCl, 2 mM dithiothreitol

UniProt P00784, sequence (P00784 134-345): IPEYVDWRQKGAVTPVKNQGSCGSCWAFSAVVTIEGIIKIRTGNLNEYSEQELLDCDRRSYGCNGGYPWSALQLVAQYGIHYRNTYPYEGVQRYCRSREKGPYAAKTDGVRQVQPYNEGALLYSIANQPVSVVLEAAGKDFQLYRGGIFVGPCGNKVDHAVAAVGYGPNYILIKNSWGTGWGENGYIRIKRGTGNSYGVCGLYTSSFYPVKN

| Substance | pKi |
| --- | --- |
| recombinant pineapple cystatin (AcCYS), residue 1-135 (natural protein) | 9.70 |
| truncated AcCYS (AcCYS_DL), residue 28-135 (domain or fragment) | 9.85 |
